According to patent publication US20250002610A1 (Genmab, published 2025):
Substitutions are numbered along the chain they refer to.

Tests used:
[1] = molecular target: T1, cynomolgus monkey FAPα on Expi293F cells (cynomolgus monkey (Macaca fascicularis), UniProt Q12884 1-760 (human entry)); test: flow cytometry, Expi293F cells expressing cynomolgus monkey FAPα, n = 1
T1 sequence: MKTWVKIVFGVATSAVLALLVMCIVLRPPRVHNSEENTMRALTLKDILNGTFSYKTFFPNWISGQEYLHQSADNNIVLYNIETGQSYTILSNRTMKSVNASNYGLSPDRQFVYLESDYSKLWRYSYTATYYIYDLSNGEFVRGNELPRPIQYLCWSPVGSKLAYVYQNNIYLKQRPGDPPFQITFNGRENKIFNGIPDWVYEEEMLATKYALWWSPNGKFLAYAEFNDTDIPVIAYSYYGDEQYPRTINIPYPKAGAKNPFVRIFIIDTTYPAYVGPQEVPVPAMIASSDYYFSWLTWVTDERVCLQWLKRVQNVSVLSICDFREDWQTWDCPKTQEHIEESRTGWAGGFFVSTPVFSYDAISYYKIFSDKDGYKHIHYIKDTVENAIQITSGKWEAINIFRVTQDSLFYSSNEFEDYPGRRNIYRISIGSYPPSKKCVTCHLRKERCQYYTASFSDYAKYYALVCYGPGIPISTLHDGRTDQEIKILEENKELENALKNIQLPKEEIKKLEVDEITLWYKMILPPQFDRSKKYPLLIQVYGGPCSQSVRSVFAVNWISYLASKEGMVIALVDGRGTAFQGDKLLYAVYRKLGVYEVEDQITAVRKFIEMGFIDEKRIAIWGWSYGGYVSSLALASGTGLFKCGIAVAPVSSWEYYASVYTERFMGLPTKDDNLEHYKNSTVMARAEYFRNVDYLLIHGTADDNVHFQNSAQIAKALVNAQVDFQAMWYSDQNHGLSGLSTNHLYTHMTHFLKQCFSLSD
Procedure: (§1) Binding of BisG1-FAPα-FERL/DR4-FERR, BisG1-FAPα-FEAL/b12-FEAR and IgG1-FAPα-FERL to FAPα of species commonly used for nonclinical toxicology studies was assessed by flow cytometry using Expi293F cells transiently expressing FAPα from different animal species. IgG1-b12 was included as negative control.
(§2) Expi293F cells expressing recombinant FAPα from various species (human, cynomolgus monkey, dog, pig, rat or mouse) were seeded (20,000 cells/well) in 96-Well round bottom plates (Greiner Bio-one, Cat #650101). Antibody dilutions were prepared using FACS buffer, consisting of PBS (Capricorn Scientific, Cat #PBS-10XA, diluted to 1×PBS in distilled water)+1% BSA (Roche, Cat #10735086001)+0.02% Sodium Azide (Bio-World, Cat #41920044-3). Plates were centrifuged, supernatant was removed, and cells were resuspended in 100 μL of antibody dilutions (concentration range 30-0.00017 μg/mL with three-fold serial dilutions using FACS buffer) of BisG1-FAPα-FERL/DR4-FERR, BisG1-FAPα-FEAL/b12-FEAR, IgG1-FAPα-FERL and IgG1-b12 and incubated for 30 min at 4° C. […] After 30 min incubation at 4° C., cells were washed with FACS buffer and resuspended in FACS buffer supplemented with TO-PRO-3 Iodide viability marker (Invitrogen, Cat #T3605, diluted 1:4,000). Antibody binding to viable cells (gMFI of PE on TO-PRO-3 negative cells) was analyzed by flow cytometry on a FACS Celesta and FACS_Diva software (first two experiments) or iQue® 3 and FlowJo software (last experiment). gMFI was determined and visualized using GraphPad Prism. Binding curves were analyzed using nonlinear regression analysis. The concentration (pg/mL) at which 50% of the maximal effect was observed (EC₅₀) was derived from the fitted curves.

[2] = molecular target: T2, pig FAPα on Expi293F cells (pig (Sus scrofa), UniProt A5D7B7 1-760 (bovine entry)); test: flow cytometry on Expi293F cells transiently expressing pig FAPα, gMFI PE
T2 chain: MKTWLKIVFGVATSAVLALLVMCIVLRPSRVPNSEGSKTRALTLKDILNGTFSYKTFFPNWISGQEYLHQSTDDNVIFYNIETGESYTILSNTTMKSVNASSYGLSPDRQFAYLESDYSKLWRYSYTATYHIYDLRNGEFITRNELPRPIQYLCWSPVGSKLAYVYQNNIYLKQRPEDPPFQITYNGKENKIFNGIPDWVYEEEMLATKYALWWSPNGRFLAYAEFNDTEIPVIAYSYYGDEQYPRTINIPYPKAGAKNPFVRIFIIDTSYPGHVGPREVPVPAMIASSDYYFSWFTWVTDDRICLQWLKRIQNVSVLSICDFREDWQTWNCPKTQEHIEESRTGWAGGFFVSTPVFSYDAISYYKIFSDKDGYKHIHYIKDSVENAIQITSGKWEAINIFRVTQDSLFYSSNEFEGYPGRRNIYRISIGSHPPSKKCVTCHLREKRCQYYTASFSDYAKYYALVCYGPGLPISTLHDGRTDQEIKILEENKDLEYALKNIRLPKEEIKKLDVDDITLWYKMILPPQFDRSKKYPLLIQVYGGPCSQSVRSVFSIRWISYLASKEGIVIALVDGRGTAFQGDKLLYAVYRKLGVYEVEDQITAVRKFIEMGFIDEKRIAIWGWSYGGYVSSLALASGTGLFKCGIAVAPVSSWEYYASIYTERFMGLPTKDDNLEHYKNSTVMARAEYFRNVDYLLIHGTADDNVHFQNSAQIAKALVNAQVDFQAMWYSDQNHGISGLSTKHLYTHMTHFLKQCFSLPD
Procedure: as §1, §2

[3] = molecular target: T3, human DR4 (Death Receptor 4), cell surface expressed on human tumor cell lines (human, UniProt O00220 24-468); test: flow cytometry, MDA-MB-231 cells, N = 1
T3 construct: also called TNFRSF10A; TRAIL-R1
T3 sequence: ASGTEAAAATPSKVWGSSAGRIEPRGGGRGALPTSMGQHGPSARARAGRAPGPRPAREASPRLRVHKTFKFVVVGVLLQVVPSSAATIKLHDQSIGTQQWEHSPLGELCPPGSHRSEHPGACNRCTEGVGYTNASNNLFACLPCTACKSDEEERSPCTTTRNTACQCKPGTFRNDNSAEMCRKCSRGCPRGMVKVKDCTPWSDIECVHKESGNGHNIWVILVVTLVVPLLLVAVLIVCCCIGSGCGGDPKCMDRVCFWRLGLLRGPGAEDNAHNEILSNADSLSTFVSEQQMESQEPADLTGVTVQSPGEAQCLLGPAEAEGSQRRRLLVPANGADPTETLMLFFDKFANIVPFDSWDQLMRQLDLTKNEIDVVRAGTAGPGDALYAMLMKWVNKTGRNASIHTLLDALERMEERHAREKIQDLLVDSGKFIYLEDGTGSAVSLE

[4] = molecular target: T3, human DR4 (Death Receptor 4), cell …; test: flow cytometry, PANC-1 cells, n = 2

B1: BisG1-FAPα-FEAL/b12-FEAR (bispecific antibody, human IgG1, kappa)
heavy 1: EVQLLESGGGLVQPGGSPRLSCEASGFTFSSYALSWVRQAPGKGLEWVSAISGSGGGRYYADSVKGRFTISRDNSKNTLFLQMNSLRAEDTAVYYCAKEGYSSSGTYWDHWGQGTLVTVSSASTKGPSVFPLAPSSKSTSGGTAALGCLVKDYFPEPVTVSWNSGALTSGVHTFPAVLQSSGLYSLSSVVTVPSSSLGTQTYICNVNHKPSNTKVDKRVEPKSCDKTHTCPPCPAPEFEGGPSVFLFPPKPKDTLMISRTPEVTCVVVAVSHEDPEVKFNWYVDGVEVHNAKTKPREEQYNSTYRVVSVLTVLHQDWLNGKEYKCKVSNKALPAPIEKTISKAKGQPREPQVYTLPPSREEMTKNQVSLTCLVKGFYPSDIAVEWESNGQPENNYKTTPPVLDSDGSFLLYSKLTVDKSRWQQGNVFSCSVMHEALHNHYTQKSLSLSPG
light 1: AIQMTQSPSSVSASVGDRVTITCRASQGVSSWLAWYQQKPGRAPKLLIYVASTLQSGVPSRFSGSGSGTDFTLTINSLQPEDFATYYCQQANSFPPTFGQGTRLEMKRTVAAPSVFIFPPSDEQLKSGTASVVCLLNNFYPREAKVQWKVDNALQSGNSQESVTEQDSKDSTYSLSSTLTLSKADYEKHKVYACEVTHQGLSSPVTKSFNRGEC
heavy 2: QVQLVQSGAEVKKPGASVKVSCQASGYRFSNFVIHWVRQAPGQRFEWMGWINPYNGNKEFSAKFQDRVTFTADTSANTAYMELRSLRSADTAVYYCARVGPYSWDDSPQDNYYMDVWGKGTTVIVSSASTKGPSVFPLAPSSKSTSGGTAALGCLVKDYFPEPVTVSWNSGALTSGVHTFPAVLQSSGLYSLSSVVTVPSSSLGTQTYICNVNHKPSNTKVDKRVEPKSCDKTHTCPPCPAPEFEGGPSVFLFPPKPKDTLMISRTPEVTCVVVAVSHEDPEVKFNWYVDGVEVHNAKTKPREEQYNSTYRVVSVLTVLHQDWLNGKEYKCKVSNKALPAPIEKTISKAKGQPREPQVYTLPPSREEMTKNQVSLTCLVKGFYPSDIAVEWESNGQPENNYKTTPPVLDSDGSFFLYSRLTVDKSRWQQGNVFSCSVMHEALHNHYTQKSLSLSPG
light 2: EIVLTQSPGTLSLSPGERATFSCRSSHSIRSRRVAWYQHKPGQAPRLVIHGVSNRASGISDRFSGSGSGTDFTLTITRVEPEDFALYYCQVYGASSYTFGQGTKLERKRTVAAPSVFIFPPSDEQLKSGTASVVCLLNNFYPREAKVQWKVDNALQSGNSQESVTEQDSKDSTYSLSSTLTLSKADYEKHKVYACEVTHQGLSSPVTKSFNRGEC
notes: Fab-arm exchange of IgG1-FAPα-FEAL and IgG1-b12-FEAR
EC50 [1]: 0.05 µg/mL | binding result [2]: binds

B2: IgG1-FAPα-FERL (antibody)
heavy: B1 heavy 1 with G240R, A269D
light: B1 light 1
notes: Bivalent monoclonal IgG1 kappa
EC50 [1]: 0.03 µg/mL | EC50 (read off the curve) [2]: ~0.3 µg/mL

B3: IgG1-DR4-FERR (antibody, V domains shown)
VH: QVQLQESGPGLVKPSGTLSLTCAVSGGSISSYSWWSWIRQPPGKGLEWIGELYHSGSTNYNPSLKSRVTISVDKSKNQFSLKLRSVTAADTAVYYCVRGVATIDYWGQGTLVTVSS
VL: QSALTQPPSASGSPGQSVTISCTGTSSDVGGYNFVSWYQQDPGKAPKLLIYEVTKRPSGVPDRFSGSKSGNTASLTVSGLQAEDEADYYCSSYAGSNNVMFGGGTKLTVLG
notes: Bivalent monoclonal IgG1 lambda
EC50 [3]: 0.24 µg/mL | EC50 [4]: 0.4 µg/mL
